Two substances from patent US20120058906A1 can be followed below.

For experiment [1], the target named is Recombinant Human DLL4 (R&D Systems Cat#1506-D4/CF) (human) (UniProt Q9NR61). The experiment is described as follows: MSD ECL multi-spot plate; Fab […]; blank spot 149.
The target in experiment [2] is rHuman EGF R/Fc Chimera, CF (R&D Systems Cat#344-ER) (human) (UniProt P00533). The experiment is described as follows: MSD ECL multi-spot plate; Fab […]; blank spot 149.
Experiment [3] has as its target rHuman Notch-1/Fc Chimera, CF (R&D Systems Cat#3647-TK) (human) (UniProt P46531). Kind of experiment: MSD ECL multi-spot plate; Fab […]; blank spot 149.
Experiment [4] addresses Recombinant Human DLL4 (R&D Systems Cat#1506-D4/CF) (human) (UniProt Q9NR61). Kind of experiment: MSD ECL multi-spot plate; Fab 1570 nM; blank spot 866.
For experiment [5], the target named is rHuman EGF R/Fc Chimera, CF (R&D Systems Cat#344-ER) (human) (UniProt P00533). The experiment is described as above.
Experiment [6] addresses rHuman Notch-1/Fc Chimera, CF (R&D Systems Cat#3647-TK) (human) (UniProt P46531). The experiment is described as above.
In experiment [7] the target is Recombinant Human DLL4 (R&D Systems Cat#1506-D4/CF) (human) (UniProt Q9NR61). The experiment is described as follows: MSD ECL multi-spot plate; Fab 98.1 nM; blank spot 210.
The target in experiment [8] is rHuman EGF R/Fc Chimera, CF (R&D Systems Cat#344-ER) (human) (UniProt P00533). The description is as above.
For experiment [9], the target named is rHuman Notch-1/Fc Chimera, CF (R&D Systems Cat#3647-TK) (human) (UniProt P46531). The experiment is described as above.
Experiment [10] addresses Recombinant Human DLL4 (R&D Systems Cat#1506-D4/CF) (human) (UniProt Q9NR61). The experiment is described as follows: MSD ECL multi-spot plate; Fab 392.5 nM; blank spot 338.
Experiment [11] addresses rHuman EGF R/Fc Chimera, CF (R&D Systems Cat#344-ER) (human) (UniProt P00533). Described as above.
The target of experiment [12] is rHuman Notch-1/Fc Chimera, CF (R&D Systems Cat#3647-TK) (human) (UniProt P46531). The description is as above.
The target of experiment [13] is rHuman EGF R/Fc Chimera, CF (R&D Systems Cat#344-ER) (human) (UniProt P00533). Kind of experiment: ECL (MSD multi-spot), Fab 14.5 nM; blank 117.
The target in experiment [14] is rHuman IGF-1 sR (IGF-1 sR), CF (R&D Systems Cat#391-GR) (human) (UniProt P08069). The experiment is described as follows: ECL (MSD multi-spot), Fab 14.5 nM; blank 117.
The target of experiment [15] is rHuman P-Cadherin/Fc Chimera, CF (R&D Systems Cat#861-PC) (human) (UniProt P22223). Kind of experiment: ECL (MSD multi-spot), Fab 14.5 nM; blank 117.
The target in experiment [16] is rHuman EGF R/Fc Chimera, CF (R&D Systems Cat#344-ER) (human) (UniProt P00533). The experiment is described as follows: ECL (MSD multi-spot), Fab 58.1 nM; blank 225.
Experiment [17] has as its target rHuman IGF-1 sR (IGF-1 sR), CF (R&D Systems Cat#391-GR) (human) (UniProt P08069). The experiment is described as follows: ECL (MSD multi-spot), Fab 58.1 nM; blank 225.
Experiment [18] concerns the target rHuman P-Cadherin/Fc Chimera, CF (R&D Systems Cat#861-PC) (human) (UniProt P22223). Kind of experiment: ECL (MSD multi-spot), Fab 58.1 nM; blank 225.
In experiment [19] the target is rHuman EGF R/Fc Chimera, CF (R&D Systems Cat#344-ER) (human) (UniProt P00533). Kind of experiment: ECL (MSD multi-spot), Fab 930 nM; blank 1206.
Experiment [20] deals with rHuman IGF-1 sR (IGF-1 sR), CF (R&D Systems Cat#391-GR) (human) (UniProt P08069). The experiment is described as follows: ECL (MSD multi-spot), Fab 930 nM; blank 1206.
In experiment [21] the target is rHuman P-Cadherin/Fc Chimera, CF (R&D Systems Cat#861-PC) (human) (UniProt P22223). Kind of experiment: ECL (MSD multi-spot), Fab 930 nM; blank 1206.
For experiment [22], the target named is rHuman EGF R/Fc Chimera, CF (R&D Systems Cat#344-ER) (human) (UniProt P00533). The experiment is described as follows: ECL (MSD multi-spot), Fab 232.5 nM; blank 460.
Experiment [23] deals with rHuman IGF-1 sR (IGF-1 sR), CF (R&D Systems Cat#391-GR) (human) (UniProt P08069). Kind of experiment: ECL (MSD multi-spot), Fab 232.5 nM; blank 460.
Experiment [24] addresses rHuman P-Cadherin/Fc Chimera, CF (R&D Systems Cat#861-PC) (human) (UniProt P22223). Kind of experiment: ECL (MSD multi-spot), Fab 232.5 nM; blank 460.

As to “Fab VH1-46_IGHD3-10*01_IGHJ4*01 & O1_IGKJ1*01”, the ECL signal in [1] was 339 ECL signal; in experiment [2] it was 317 ECL signal; in experiment [3], 434 ECL signal; in experiment [4] it was 2700 ECL signal; in experiment [5] it was 2480 ECL signal; in [6] it was 1640 ECL signal. In addition, the ECL signal came out at 402 ECL signal in [7]; 4390 ECL signal in experiment [8]; 313 ECL signal in experiment [9]; 735 ECL signal in [10]; 744 ECL signal in experiment [11]; 749 ECL signal in experiment [12].

Turning to “Fab VH1-46_IGHD6-13*01_IGHJ4*01 & O1_IGKJ1*01”, the ECL signal in [13] was found to be 357 ECL signal; in experiment [14] it was 234 ECL signal; in experiment [15] it was 277 ECL signal; in [16], 444 ECL signal; in experiment [17], 343 ECL signal; in experiment [18], 478 ECL signal. For the same substance, the ECL signal was determined as 3110 ECL signal in experiment [19]; 1920 ECL signal in experiment [20]; 2440 ECL signal in experiment [21]; 803 ECL signal in experiment [22]; 569 ECL signal in experiment [23]; 655 ECL signal in [24].
